Columns and labels:
[1] = molecular target: T1, HGF (hepatocyte growth factor/scatter factor) (UniProt P14210;P14210 P14210:32-494,P14210:495-728); test: filter; HBSMC, 37C; worse than random pool; settings: tags: R&D Systems
Method: (§1) In binding reactions, RNA concentrations were kept as low as possible—between 1 and 20 pM—to ensure equilibrium in conditions of protein excess. Oligonucleotides were incubated for 15 minutes at 37° C. with varying amounts of the protein in 43 µl of the binding buffer. Thirty-two microliters of each binding mixture placed on pre-wet 0.45 µm nitrocellulose filters under suction. Each well was immediately washed with 0.5 ml binding buffer. The amount of radioactivity retained on the filters was quantitated by imaging. The radioactivity that bound to filters in the absence of protein was used for background correction. The percentage of input oligonucleotide retained on each filter spot was plotted against the corresponding log protein concentration. The nonlinear least square method was used to obtain the dissociation constant (K_d; reference Jellinek, Lynott et al. 1993, Proc. Natl. Acad. Sci. USA. 90:11227–31).

[2] = molecular target: T1, HGF (hepatocyte growth factor/scatter …); test: filter; 36mer; PEGylated form inhibits HGF in cells; settings: tags: R&D Systems
Method: as §1

[3] = molecular target: T1, HGF (hepatocyte growth factor/scatter …); test: filter; HBSMC, 37C; SEQ 43 in listing has a deviating 3' end; settings: tags: R&D Systems
Method: as §1

[4] = molecular target: c-met extracellular domain-IgG1-His6 (Homo sapiens, UniProt P08581 P08581:25-932); test: filter; biphasic; lower affinity Kd ~5 nM; settings: chain copies: 2
[5] = molecular target: T1, HGF (hepatocyte growth factor/scatter …); test: filter; HBSMC, 37C; table cites SEQ 15, which is a template in the listing; settings: tags: R&D Systems
Method: as §1

[6] = molecular target: T1, HGF (hepatocyte growth factor/scatter …); test: filter; HBSMC, 37C; SEQ 108 in listing duplicates SEQ 107, table sequence used; settings: tags: R&D Systems
Method: as §1

[7] = molecular target: T1, HGF (hepatocyte growth factor/scatter …); test: filter; one or two 5' G; no inhibition of HGF in cells without PEG; settings: tags: R&D Systems
Method: as §1

T1 sequence (P14210 32-494, chain 1 of 2): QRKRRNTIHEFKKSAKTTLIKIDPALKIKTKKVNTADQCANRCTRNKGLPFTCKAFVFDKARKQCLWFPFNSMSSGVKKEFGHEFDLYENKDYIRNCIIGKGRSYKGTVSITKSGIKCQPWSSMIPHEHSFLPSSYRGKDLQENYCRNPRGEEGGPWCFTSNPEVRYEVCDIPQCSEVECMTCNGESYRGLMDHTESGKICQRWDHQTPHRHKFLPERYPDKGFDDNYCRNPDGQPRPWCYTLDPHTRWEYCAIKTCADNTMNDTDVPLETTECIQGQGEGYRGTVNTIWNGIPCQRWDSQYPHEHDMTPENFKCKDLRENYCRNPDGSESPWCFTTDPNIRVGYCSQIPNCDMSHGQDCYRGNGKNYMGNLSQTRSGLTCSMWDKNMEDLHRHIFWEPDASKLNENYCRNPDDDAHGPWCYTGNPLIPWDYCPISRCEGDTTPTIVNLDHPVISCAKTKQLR
T1 sequence (P14210 495-728, chain 2 of 2): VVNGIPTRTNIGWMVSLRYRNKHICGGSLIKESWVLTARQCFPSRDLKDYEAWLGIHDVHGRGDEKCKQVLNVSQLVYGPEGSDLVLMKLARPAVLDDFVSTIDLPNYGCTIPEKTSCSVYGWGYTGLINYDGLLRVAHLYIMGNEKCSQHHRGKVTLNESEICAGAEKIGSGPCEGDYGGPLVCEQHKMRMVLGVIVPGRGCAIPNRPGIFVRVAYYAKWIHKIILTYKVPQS
Chain of c-met extracellular domain-IgG1-His6 (P08581 25-932, one chain of several): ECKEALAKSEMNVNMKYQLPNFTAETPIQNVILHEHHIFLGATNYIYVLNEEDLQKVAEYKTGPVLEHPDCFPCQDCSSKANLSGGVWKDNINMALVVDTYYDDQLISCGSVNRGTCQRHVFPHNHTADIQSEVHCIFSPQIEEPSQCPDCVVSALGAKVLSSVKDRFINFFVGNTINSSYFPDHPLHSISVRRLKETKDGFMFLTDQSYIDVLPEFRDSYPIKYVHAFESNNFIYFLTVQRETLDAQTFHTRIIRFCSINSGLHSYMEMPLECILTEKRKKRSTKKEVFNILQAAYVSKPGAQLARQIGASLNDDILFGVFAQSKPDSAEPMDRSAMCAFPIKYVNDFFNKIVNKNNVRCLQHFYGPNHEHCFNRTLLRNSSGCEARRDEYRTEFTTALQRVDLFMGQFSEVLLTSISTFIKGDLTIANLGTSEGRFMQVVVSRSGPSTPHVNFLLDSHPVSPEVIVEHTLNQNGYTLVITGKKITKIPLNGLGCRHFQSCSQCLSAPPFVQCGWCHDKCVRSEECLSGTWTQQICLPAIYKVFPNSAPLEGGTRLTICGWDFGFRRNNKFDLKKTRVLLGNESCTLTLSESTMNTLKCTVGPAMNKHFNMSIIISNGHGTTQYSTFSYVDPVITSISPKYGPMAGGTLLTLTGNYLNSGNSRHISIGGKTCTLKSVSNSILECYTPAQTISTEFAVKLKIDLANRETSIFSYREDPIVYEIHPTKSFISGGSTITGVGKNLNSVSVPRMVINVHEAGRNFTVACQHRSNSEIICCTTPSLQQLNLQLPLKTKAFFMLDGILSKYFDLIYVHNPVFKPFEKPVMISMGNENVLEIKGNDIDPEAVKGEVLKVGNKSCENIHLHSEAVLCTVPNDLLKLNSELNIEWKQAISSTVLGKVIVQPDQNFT

B1: 8-151 (ssRNA)
RNA: GGGAGGACGAUGCGGAGGACUAAUCCCUAAGGAAUAGCUUGCCCGCAGACGACUCGCCCGA
modifications: 2'-F pyrimidines
Kd [1]: 8 nM

GGACGAUGCGGCGAGUGCCUGUUUAUGUCAUCGUCC (ssRNA, 2'-F pyrimidines; NX22354 formulation carries 5'-40K PEG and 3'-dT cap) [NX22354 (36mer of 8-102)]
Kd [2]: 0.1 nM

B2: 11-106 (ssRNA)
RNA: GGGAGGACGAUGCGGCGAUGAUGCCUGUUUAUGUCGAUGUCCCCCCAGACGACUCGCCCGA
modifications: 2'-F pyrimidines
Kd [3]: 0.12 nM

B3: 7c-1 (ssRNA)
RNA: GGGAGGACGAUGCGGUUUGACUAUGUCUGACGGGUCUGUGGUCAAUUCCGCCCCCAGACGACUCGCCCGA
modifications: 2'-F pyrimidines
Kd [4]: ~0.05 nM

B4: 8-117 (ssRNA)
RNA: GGGAGGACGAUGCGGUCCCAAGUUUCAGGGCGUUUCUUCCUCGUCCAGACGACUCGCCCGA
modifications: 2'-F pyrimidines
Kd [5]: 0.13 nM

B5: 10-17 (ssRNA)
RNA: GGGAGAUAAGAAUAAACGCUCAAAACCCUGUUGGCGUGACGUCCCGACCCUCCUUCGACAGGAGGCUCACAACAGGC
modifications: 2'-F pyrimidines
Kd [6]: 0.56 nM

GGAAUCACAGGAAUCAACUUCUAUUCCCGCCCCA (ssRNA, 2'-F pyrimidines) [Tr51]
Kd [7]: 0.06 nM

From patent publication US6344321, “Nucleic acid ligands which bind to hepatocyte growth factor/scatter factor (HGF/SF) or its receptor c-met” (Gilead Sciences, Inc.)
